This is an account of results in the supplement of paper PMC10567573.

The nature of the data set: protein stability index of a GFP-peptide fusion (GPS, HEK-293T) (PSI 1-6); higher = more stable. To be noted: c terminus: a fixed tail appended.

± gives the standard deviation.
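Also: 24-mer peptide tiles fused after GFP, lentivirally expressed, FACS-sorted into six equal bins by GFP/DsRed ratio, decoded by Illumina sequencing, PSI is the read-weighted mean bin number.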

Turning to NSEDIFLLLCLKVDNHFNLLTTSP [TRIM43], the protein stability index is 2.58 ± 0.33 (treatment: DMSO) and 2.31 ± 0.67 (treatment: MLN4924 1 uM, 8 h).
For NSNLEEPLNPKPHKKKSPGEKPHR [ZNF449], the protein stability index was 5.47 ± 0.23 (treatment: DMSO) and 5.45 ± 0.2 (treatment: MLN4924 1 uM, 8 h).
In the same order, the values of NSSTWGSLKQALKGLSVEFALLAD [SNX8] are 2.39 ± 0.55 and 2.45 ± 0.36.
As to NVEMDATPGIDLTRVLAEMREQYE [KRT13], the protein stability index is 4.47 ± 0.17 (treatment: DMSO) and 4.75 ± 0.32 (treatment: MLN4924 1 uM, 8 h).
In the same order, the values of NVHTGEFRNCGACVTLMQGHEGSV [WDR88] are 2.35 ± 0.5 and 2.17 ± 0.2.
In the same order, the values of NVLVDPSARIGQNCSIGPNVSLGP [GMPPB] are 3.61 ± 0.088 and 3.43 ± 0.25.
In the case of NVQRLAEPSQMLKHAVVNLINYQD [CTNNB1], the protein stability index was determined as 2.66 ± 0.18 (treatment: DMSO) and 2.83 ± 0.12 (treatment: MLN4924 1 uM, 8 h).
In the same order, the values of NYYEVGSNRGAYVKLGPALTPHIV [PPEF2] are 2.19 ± 0.2 and 2.55 ± 0.32.
PAMGLQKKLRLNGGRNPYEGRVEV [LOXL2] showed a protein stability index (treatment: MLN4924 1 uM, 8 h) of 4.08 ± 0.88.
Take PAQRSHTYTHGLGLHRRPGAGHCS: the protein stability index is, setting by setting: (treatment: DMSO) 3.52 ± 0.12; (treatment: MLN4924 1 uM, 8 h) 3.46 ± 0.3.
In the same order, the values of PCSFVCWYRPMYKAFRSDSSFNFF [SCAMP3] are 2.86 ± 0.77 and 2.6 ± 0.5.
Turning to PCSVIRPILKRLERPQDRDTPVQN [CDC25B], the protein stability index was determined as 4.31 ± 0.15 (treatment: DMSO) and 4.51 ± 0.066 (treatment: MLN4924 1 uM, 8 h).
In the same order, the values of PCVIESLRTLDKKTFYKTADISQM [TAF7L] are 2.33 ± 0.34 and 2.41 ± 0.23.
On to PDAIRSRSNTLRERSQVRGSAPPR [PCDHGC5], for which the protein stability index stood at 5 ± 0.33 (treatment: DMSO) and 4.84 ± 0.23 (treatment: MLN4924 1 uM, 8 h).
In the same order, the values of PDDYRCSYRIHNGQKLVVPGLLGS [FBXO3] are 2.68 ± 0.46 and 2.66 ± 0.34.
With PDLRQDFNMMEQKKRVSMILQSPA [ADD1], the protein stability index amounted to 3.7 ± 0.32 (treatment: DMSO) and 3.78 ± 0.23 (treatment: MLN4924 1 uM, 8 h).
In the same order, the values of PDQLPQNNTLVALPIVAIENILSF [FBXO28] are 2.34 ± 0.24 and 2.38 ± 0.27.
In the same order, the values of PDSVPSLQNMGLLLDKLAKENQDI [PBXIP1] are 4.48 ± 0.18 and 4.42 ± 0.15.
In the same order, the values of PDYGVPSSAASLIDFLRVVRNQQS [PTPN9] are 2.84 ± 0.24 and 3.14 ± 0.25.
Regarding PEFVAPEIVNYEPLGLEADMWSIG [DAPK3], the protein stability index was determined as 3.46 ± 0.24 (treatment: DMSO) and 3.93 ± 0.7 (treatment: MLN4924 1 uM, 8 h).
In the same order, the values of PELTAALRDIRAQYESIAAKNLQE [PRPH] are 3.52 ± 0.65 and 3.8 ± 0.48.
Take PEVILELGWAQPCDVWSIGCILFE [CLK3]: the protein stability index worked out at 2.63 ± 0.5 (treatment: DMSO) and 3.55 ± 1 (treatment: MLN4924 1 uM, 8 h).
In the same order, the values of PEVTSALLESLNQQRLQGQLCDVS [ZBTB22] are 3.57 ± 0.23 and 3.65 ± 0.35.
In the same order, the values of PFKQVAEMLSASRYPTISMVKPLL [ZBED1] are 1.97 ± 0.4 and 2.19 ± 0.38.
In the same order, the values of PFTVYQVRWLRPVHRQLGEANEEF [AUP1] are 2.43 ± 0.34 and 2.33 ± 0.32.
Consider PGGVYAGPEPPPVYTNLSSYSPAS [JUNB], for which the protein stability index reads like this: (treatment: DMSO) 3.94 ± 0.27; (treatment: MLN4924 1 uM, 8 h) 4.18 ± 0.41.
In the case of PGKALGPAATMAVELHYEEGSPRN [C2CD2L], the protein stability index by setting is: (treatment: DMSO) 4.81 ± 0.29; (treatment: MLN4924 1 uM, 8 h) 4.82 ± 0.21.
In the same order, the values of PGNKGRGQRGNTESKTDGDDTETV [TCF25] are 5.57 ± 0.3 and 5.54 ± 0.3.
In the same order, the values of PGTGKTSLCKALAQKLTIRLSSRY [TRIP13] are 2.92 ± 0.64 and 2.63 ± 0.65.
In the same order, the values of PHVALAVRYNRVGILRRILRTLRD [ANKRD9] are 2.73 ± 0.073 and 2.84 ± 0.3.
Take PIAPEVEDPEENPYGPPPDAVQTS [RBBP5]: the protein stability index (treatment: DMSO) was determined as 5.56 ± 0.17 and the protein stability index (treatment: MLN4924 1 uM, 8 h) came to 5.54 ± 0.19.
The sequence PIPWFLPESRSLPSSPLRLGSYKA [PPEF2] registered a protein stability index (treatment: DMSO) of 2.99 ± 0.16 and a protein stability index (treatment: MLN4924 1 uM, 8 h) of 3.11 ± 0.48.
Regarding PISPSTEVGGSGIGTPPSVLKRQR [MYBL2], the protein stability index came out at 5.36 ± 0.24 (treatment: DMSO) and 4.97 ± 0.36 (treatment: MLN4924 1 uM, 8 h).
In the same order, the values of PIVPKIAGDGDTSNFETYPENDWD [PRKX] are 5.51 ± 0.17 and 5.37 ± 0.32.
With PKGSLSMGPAPRARPWTRDSASLP [RASAL3], the protein stability index (treatment: DMSO) was found to be 3.81 ± 0.13 and the protein stability index (treatment: MLN4924 1 uM, 8 h) turned out to be 4.04 ± 0.4.
In the same order, the values of PKPLTRKPILLQRMEGSQEVVNMA [WDFY2] are 3.66 ± 0.049 and 3.65 ± 0.41.
In the same order, the values of PLDILAQPLEASNPALEGLTQPLQ [DNAAF3] are 4.9 ± 0.28 and 4.78 ± 0.16.
